For this test, the target named is HLA-B15 (human). Briefly: experimental peptide-HLA binding affinity; method not described.

In turn, HPV16 E7/15-23 peptide … showed a Binding affinity of 4.68 µM. As for HPV16 E7/15-24 peptide …, the figure is 38.5 µM; as for HPV16 E7/15-25 peptide …, 7.3 µM.
